Experimental data from article doi:10.1101/2022.12.04.519021.
“And” between values parts separate entries of the source, which are not always exact repeats. Identical values can stand only once. Like-named read-outs stand apart in the source and are kept apart here.

What was measured:
[1] = target: C-terminally amidated amyloid-beta fragment Aβ1-24-NH2 (human); assay: SDS-PAGE and immunoblot
[2] = target: C-terminally amidated amyloid-beta fragment Aβ1-24-NH2 (human); assay: high-resolution LC-MS
[3] = target: C-terminally truncated amyloid-beta fragment Aβ1-23 (human); assay: SDS-PAGE and immunoblot
[4] = target: C-terminally truncated amyloid-beta fragment Aβ1-25 (human); assay: SDS-PAGE and immunoblot
[5] = target: C-terminally truncated amyloid-beta fragment Aβ1-25 (human); assay: SDS-PAGE and immunoblot; remark: listed apart in the source

Substance: C-terminally amidated amyloid-beta fragment Aβ1-24-NH2 (peptide)
- stoichiometry N [1]: 2 and 3
- stoichiometry N [2]: 3 and 2 and 5

Substance: C-terminally truncated amyloid-beta fragment Aβ1-23 (peptide)
- stoichiometry N [3]: 3 and 2

Substance: C-terminally truncated amyloid-beta fragment Aβ1-25 (peptide)
- stoichiometry N [4]: 3
- stoichiometry N [5]: 2
